The record followed here is publication PMC5734868 (ACS infectious diseases, 2017).

This data set concerns the molecule itself. The data set can be described thus: SDS-PAGE of semi-denatured protein.

B1: M. tuberculosis aspartate decarboxylase PanD, wild type (enzyme)
chain: MLRTMLKSKIHRATVTCADLHYVGSVTIDADLMDAADLLEGEQVTIVDIDNGARLVTYAITGERGSGVIGINGAAAHLVHPGDLVILIAYATMDDARARTYQPRIVFVDAYNKPIDMGHDPAFVPENAGELLDPRLGVG
With B1, the binding result was “binds”.
